Measured values reported in paper PMC7047192 (EBioMedicine, 2020).

Target: Flag-EGFR purified from 293T cells (UniProt P00533 25-1210)
Test: co-IP

B1: His-CDC34 (enzyme)
chain: MARPLVPSSQKALLLELKGLQEEPVEGFRVTLVDEGDLYNWEVAIFGPPNTYYEGGYFKARLKFPIDYPYSPPAFRFLTKMWHPNIYETGDVCISILHPPVDDPQSGELPSERWNPTQNVRTILLSVISLLNEPNTFSPANVDASVMYRKWKESKGKDREYTDIIRKQVLGTKVDAERDGVKVPTTLAEYCVKTKAPAPDEGSDLFYDDYYEDGEVEEEADSCFGDDEDDSGTEES
B1: binds.
